Laboratory results published in patent US20240109973A1 (Memorial Sloan Kettering, published 2024).

Assays:
[1] = target: T1, human CD40 on cells (human, UniProt P25942 21-277); experiment: cell-based or functional assay
[2] = target: T2, recombinant human CD40 (residues 21-192) fused to a 6×His-tag at the carboxy-terminus (human, UniProt P25942 21-192); experiment: BLI, soluble monomeric human CD40-His
T2 construct: range 21-192; also called Human CD40-His; soluble, monomeric human CD40-His
Method: Dissociation constants (KD), on-rates (kon) and off-rates (koff) for the 10F12 chimeric mAb were determined by BLI using soluble, monomeric human CD40-His (Table 1).

[3] = target: T1, human CD40 on cells; experiment: cell-based or functional assay; remark: listed apart in the source
[4] = target: T2, recombinant human CD40 (residues …); experiment: BLI, Octet Red96e
Method: (§1) Antibody TDI-Y-003 produced in stable CHO pools was tested in a series of binding and functional assays in vitro as well as an in vivo study in a disease-relevant animal model. Affinity to human CD40 was measured by BLI using an Octet Red96e. […] The slower off-rate seen for this interaction is likely a result of the avidity between the bivalent TDI-Y-003 IgG and the dimeric CD40-Fc.

[5] = target: T3, Cyno CD40-His (cynomolgus monkey, UniProt G7PG38 21-192); experiment: BLI, Octet Red96e
T3 construct: also called monomeric cynomolgus monkey CD40; not shown: His tag
Method: (§2) Affinity to cynomolgus monkey and mouse CD40 was measured by BLI using an Octet Red96e.

[6] = target: T4, Mouse CD40-His (mouse, UniProt P27512 24-192, limits assumed); experiment: BLI, Octet Red96e
T4 construct: also called monomeric mouse CD40; not shown: His tag
T4 sequence (looked up): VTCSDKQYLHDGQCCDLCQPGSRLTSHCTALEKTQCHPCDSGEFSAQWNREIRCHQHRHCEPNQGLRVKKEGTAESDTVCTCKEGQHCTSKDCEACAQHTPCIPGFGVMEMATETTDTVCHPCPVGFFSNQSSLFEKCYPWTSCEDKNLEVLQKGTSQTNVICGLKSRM
Method: as §2

[7] = target: T1, human CD40 on cells; experiment: cell-based or functional assay; remark: listed apart in the source
[8] = target: T1, human CD40 on cells; experiment: flow cytometry, Raji cells (endogenous CD40)
Method: (§3) To assess the binding of TDI-Y-003 to cell surface-bound CD40, HEK293 overexpressing CD40 as well as Raji cells (B-lymphocytes) and primary human dendritic cells, which express endogenous CD40, were used. TDI-Y-003 bound HEK293-CD40 and Raji cells with EC₅₀ values in the sub-nanomolar range at 0.44 and 0.77 nM, respectively (Table 5).

[9] = target: T1, human CD40 on cells; experiment: flow cytometry, HEK293 cells overexpressing CD40
Method: as §3

[10] = target: T1, human CD40 on cells; experiment: flow cytometry, primary human dendritic cells (endogenous CD40)
Method: as §3

[11] = target: T5, human CD40-Fc (human, UniProt P25942 21-192); experiment: BLI, Octet Red96e; avidity between bivalent IgG and dimeric CD40-Fc
T5 construct: range 21-192; also called dimeric CD40-Fc; not shown: human Fc fragment fused to the carboxy-terminus
Method: as §1

[12] = target: T1, human CD40 on cells; experiment: flow cytometry competition on HEK293 cells stably expressing CD40; competitor HA-tagged CD40 ligand detected with PE anti-HA
Method: FIG. 4. Competitive binding of TDI-Y-003 with CD40 ligand to CD40 stably expressed on HEK293 cells. HEK293 cells stably expressing CD40 were co-incubated with either TDI-Y-003 or isotype control antibody and HA-tagged CD40 ligand. CD40 ligand binding was assessed by flow cytometry with a PE labeled anti-HA antibody. Results are normalized to secondary antibody only controls (MFI ratio).
Competitive binding of TDI-Y-003 with CD40L for binding to CD40 was assessed using HEK293 cells stably expressing CD40. Cells were co-incubated with HA tagged CD40 ligand and TDI-Y-003 or isotype control at the indicated concentrations and analyzed for CD40 ligand binding by flow cytometry (FIG. 4).

T2 sequence (P25942 other isoform, or with tags, fused parts or gaps limits assumed): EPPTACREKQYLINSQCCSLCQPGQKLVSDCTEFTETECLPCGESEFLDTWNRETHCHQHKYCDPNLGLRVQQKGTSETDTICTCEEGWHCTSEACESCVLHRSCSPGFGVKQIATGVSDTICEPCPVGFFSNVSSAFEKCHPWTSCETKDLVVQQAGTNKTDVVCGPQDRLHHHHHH
T5 sequence (P25942 21-192): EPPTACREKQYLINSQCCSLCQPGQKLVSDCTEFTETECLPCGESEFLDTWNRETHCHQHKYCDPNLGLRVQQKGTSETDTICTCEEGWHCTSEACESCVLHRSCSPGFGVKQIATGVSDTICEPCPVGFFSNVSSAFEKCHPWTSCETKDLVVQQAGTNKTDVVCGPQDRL
T1 sequence (P25942 21-277): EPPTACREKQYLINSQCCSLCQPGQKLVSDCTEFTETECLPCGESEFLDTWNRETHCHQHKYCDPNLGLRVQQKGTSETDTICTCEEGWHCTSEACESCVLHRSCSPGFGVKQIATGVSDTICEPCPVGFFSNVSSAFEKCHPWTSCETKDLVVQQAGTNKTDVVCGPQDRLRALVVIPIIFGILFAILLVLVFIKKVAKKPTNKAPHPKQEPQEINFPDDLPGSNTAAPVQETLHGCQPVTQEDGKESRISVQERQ

B1: 10F12 chimeric mAb, human IgG1 (antibody, V domains shown)
VH: QVQLKQSGPGLVQPSQSLSITCTVSGFSLTTYGLHWVRQSPGKGLEWLGVIWRGGNTDYNAAFMSRLSITKDNSKSQVFFKMNSLQADDTAIYYCAKNSYYGNGGHAMDYWGQGTSVTVSS
VL: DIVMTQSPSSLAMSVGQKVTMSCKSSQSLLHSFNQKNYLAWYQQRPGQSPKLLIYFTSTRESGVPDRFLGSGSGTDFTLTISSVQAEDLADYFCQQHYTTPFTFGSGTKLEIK
notes: Mouse variable regions fused to human constant regions of the IgG1 subclass; Expressed in HEK293 cells; also called 10-F12 (Human IgG1)
EC50 for agonist activity (HEK293-CD40 NF-κB-Luciferase reporter system) [1]: 0.333 nM
Max Stim [% CD40L] (HEK293-CD40 NF-κB-Luciferase reporter system) [1]: 63.4 % CD40L
Kd [2]: 27.1 nM
koff [2]: 0.0071 s⁻¹
kon [2]: 262000 M⁻¹ s⁻¹

B2: human CD40L (ligand, UniProt P29965 113-261, looked up)
chain: MQKGDQNPQIAAHVISEASSKTTSVLQWAEKGYYTMSNNLVTLENGKQLTVKRQGLYYIYAQVTFCSNREASSQAPFIASLCLKSPGRFERILLRAANTHSSAKPCGQQSIHLGGVFELQPGASVFVNVTDPSQVSHGTGFTSFGLLKL
EC50 for agonist activity (HEK293-CD40 NF-κB-Luciferase reporter system) [1]: 3.58 nM
Max Stim [% CD40L] (HEK293-CD40 NF-κB-Luciferase reporter system) [1]: 100 % CD40L
EC50 in agonist assay (HEK293 NF-kB-luciferase reporter line stably expressing CD40) [3]: 9.62 nM

B3: TDI-Y-003 (antibody, human IgG2, kappa, V domains shown)
VH: QVQLQESGPGLVKPSETLSLTCTVSGFSLTTYGLHWIRQPPGKGLEWIGVIWRGGNTDYNPSLKSRVTISKDTSKNQVSLKLSSVTAADTAVYYCAKNSYYGQGGHAMDYWGQGTLVTVSS
VL: DIVMTQSPDSLAVSLGERATINCKSSQSLLHSFNQKNYLAWYQQKPGQPPKLLIYFTSTRESGVPDRFSGSGSGTDFTLTISSLQAEDVAVYYCQQHYTTPFTFGQGTKLEIKR
notes: also called Hu10F12 (N103Q); hu10F12 (N103Q)
Kd [4]: 40 nM
koff [4]: 0.048 s⁻¹
kon [4]: 1.2e+06 M⁻¹ s⁻¹
Kd [5]: 48 nM
koff [5]: 0.0471 s⁻¹
kon [5]: 977000 M⁻¹ s⁻¹
binding result [6]: no binding (tested: 1.7 µM)
EC50 in agonist assay (HEK293 NF-kB-luciferase reporter line stably expressing CD40) [3]: 0.64 nM
EC50 in DC activation assay, marker CD80 [7]: 2 nM
EC50 in DC activation assay, marker CD86 [7]: 5.5 nM
EC50 in DC activation assay, marker HLA-ABC [7]: 2.5 nM
EC50 in DC activation assay, marker HLA-DR [7]: 1.7 nM
EC50 [8]: 0.77 nM
EC50 [9]: 0.44 nM
EC50 [10]: 3.85 nM
Kd [11]: 1.2 nM
koff [11]: 0.0013 s⁻¹
kon [11]: 1e+06 M⁻¹ s⁻¹
IC50 [12]: 1.07 nM

B4: 10F12 chimeric mAb, human IgG2 (antibody, V domains shown)
VH: QVQLKQSGPGLVQPSQSLSITCTVSGFSLTTYGLHWVRQSPGKGLEWLGVIWRGGNTDYNAAFMSRLSITKDNSKSQVFFKMNSLQADDTAIYYCAKNSYYGNGGHAMDYWGQGTSVTVSS
VL: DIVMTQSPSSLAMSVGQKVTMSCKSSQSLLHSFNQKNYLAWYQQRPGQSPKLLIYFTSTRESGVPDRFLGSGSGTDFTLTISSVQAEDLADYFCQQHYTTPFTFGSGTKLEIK
notes: Mouse variable regions fused to human constant regions of the IgG2 subclass; Expressed in HEK293 cells; also called 10-F12 (Human IgG2); 10-F12 hIgG2
EC50 for agonist activity (HEK293-CD40 NF-κB-Luciferase reporter system) [1]: 0.01 nM
Max Stim [% CD40L] (HEK293-CD40 NF-κB-Luciferase reporter system) [1]: 96.5 % CD40L
Kd [2]: 26.5 nM
koff [2]: 0.00911 s⁻¹
kon [2]: 344000 M⁻¹ s⁻¹

B5: TDI-Y-003 F(ab′)2 fragment generated by pepsin cleavage (other)
heavy: QVQLQESGPGLVKPSETLSLTCTVSGFSLTTYGLHWIRQPPGKGLEWIGVIWRGGNTDYNPSLKSRVTISKDTSKNQVSLKLSSVTAADTAVYYCAKNSYYGQGGHAMDYWGQGTLVTVSSASTKGPSVFPLAPCSRSTSESTAALGCLVKDYFPEPVTVSWNSGALTSGVHTFPAVLQSSGLYSLSSVVTVPSSNFGTQTYTCNVDHKPSNTKVDKTVERKCCVECPPCPAPPVAGPSVFLFPPKPKDTLMISRTPEVTCVVVDVSHEDPEVQFNWYVDGVEVHNAKTKPREEQFNSTFRVVSVLTVVHQDWLNGKEYKCKVSNKGLPAPIEKTISKTKGQPREPQVYTLPPSREEMTKNQVSLTCLVKGFYPSDIAVEWESNGQPENNYKTTPPMLDSDGSFFLYSKLTVDKSRWQQGNVFSCSVMHEALHNHYTQKSLSLSPG
light: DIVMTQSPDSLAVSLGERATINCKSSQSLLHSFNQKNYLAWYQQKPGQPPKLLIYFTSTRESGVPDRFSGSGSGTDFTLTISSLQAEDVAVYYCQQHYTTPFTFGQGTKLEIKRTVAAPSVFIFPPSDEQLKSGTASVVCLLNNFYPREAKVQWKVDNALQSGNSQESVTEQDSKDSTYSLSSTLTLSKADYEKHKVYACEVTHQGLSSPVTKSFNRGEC
EC50 in agonist assay (HEK293 NF-kB-luciferase reporter line stably expressing CD40) [3]: 2.14 nM

B6: TDI-Y-003 Fab fragment generated by papain cleavage (Fab, V domains shown)
VH: QVQLQESGPGLVKPSETLSLTCTVSGFSLTTYGLHWIRQPPGKGLEWIGVIWRGGNTDYNPSLKSRVTISKDTSKNQVSLKLSSVTAADTAVYYCAKNSYYGQGGHAMDYWGQGTLVTVSS
VL: DIVMTQSPDSLAVSLGERATINCKSSQSLLHSFNQKNYLAWYQQKPGQPPKLLIYFTSTRESGVPDRFSGSGSGTDFTLTISSLQAEDVAVYYCQQHYTTPFTFGQGTKLEIKR
EC50 in agonist assay (HEK293 NF-kB-luciferase reporter line stably expressing CD40) [3]: 112 nM
